In patent US20250011363A1, “OPTIMIZED SHORTENED PEPTIDE THAT BINDS TO ACETYLCHOLINE RECEPTOR, AND USE THEREOF” (SKINMED CO., LTD., priority 2021, published 2025):

Molecular target: acetylcholine receptor (Homo sapiens, UniProt P02708)
Test: SPR binding affinity (RU) of optimized 5mer/6mer/7mer peptides, Examples 6-7
Conditions: 6mer-1 Top sequence; SPR; peptides tested at 10 μM
How it was run: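 Response units from SPR give the binding values listed. Each synthesized peptide was run at 10 μM over the receptor.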

Chain of acetylcholine receptor (P02708 21-457): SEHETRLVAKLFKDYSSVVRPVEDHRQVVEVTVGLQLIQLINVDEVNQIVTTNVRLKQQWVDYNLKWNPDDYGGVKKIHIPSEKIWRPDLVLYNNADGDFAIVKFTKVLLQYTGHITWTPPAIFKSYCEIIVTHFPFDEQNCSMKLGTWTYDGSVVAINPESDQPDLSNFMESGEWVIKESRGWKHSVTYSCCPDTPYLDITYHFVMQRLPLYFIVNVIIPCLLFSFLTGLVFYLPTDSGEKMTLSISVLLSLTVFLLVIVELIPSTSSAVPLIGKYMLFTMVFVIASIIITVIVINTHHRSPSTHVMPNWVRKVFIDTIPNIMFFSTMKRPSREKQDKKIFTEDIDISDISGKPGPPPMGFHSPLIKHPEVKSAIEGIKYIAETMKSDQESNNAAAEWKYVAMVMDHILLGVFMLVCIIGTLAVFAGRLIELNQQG

Substance	Binding affinity [Ru]
6mer-1-369 (KKWYRK)	144
6mer-1-213 (KRRVRK)	127
6mer-1-363 (KRQIRR)	121
6mer-1-267 (KRRLLR)	139
6mer-1-283 (KKWVQK)	133
6mer-1-282 (RRRRYR)	121

Same assay, conditions: 6mer-2 Top sequence; SPR; peptides tested at 10 μM

Substance	Binding affinity [Ru]
6mer-2-176 (RWIYRR)	144
6mer-2-12 (RQFQRK)	147
6mer-2-146 (KQLLKR)	135
6mer-2-23 (RWVRKK)	148
6mer-2-10 (KVFSKK)	124
6mer-2-131 (KQQTKR)	148
6mer-2-81 (RRVSRR)	121
6mer-2-53 (KSLSRR)	125

Same assay, conditions: SPR, Resonance Units; 5mer Bottom sequence (bottom combinations); peptides tested at 10 μM

Substance	Binding affinity [Ru]
5mer-781 (RIDPR)	28
5mer-658 (KKWGR)	31
5mer-687 (RMEIR)	22
5mer-918 (RNNVR)	12
5mer-612 (KCTDK)	23
5mer-722 (KNHKK)	33
5mer-1042 (RCCAK)	28
5mer-762 (KMPER)	21
5mer-1098 (RFHGR)	31
5mer-751 (RYMMR)	20
5mer-725 (RNADR)	19
5mer-680 (RFTER)	21
5mer-788 (KYHGK)	16
5mer-957 (RDCER)	30
5mer-1036 (KTHMK)	23

Same assay, conditions: SPR, Resonance Units; peptides tested at 10 μM; 6mer-1 Bottom sequence

Substance	Binding affinity [Ru]
6mer-1-1165 (RRATWR)	29
6mer-1-1141 (KRNMHK)	40
6mer-1-1123 (RRDNVK)	41
6mer-1-1170 (KKYNPK)	25
6mer-1-1189 (KKCHWR)	40
6mer-1-1120 (RRKEAK)	22

Same assay, conditions: SPR, Resonance Units; peptides tested at 10 μM; 6mer-1 Bottom sequence (Table 11)

Substance	Binding affinity [Ru]
6mer-1-620 (RRKTAK)	11
6mer-1-683 (KRDSMR)	16
6mer-1-758 (KKYHHR)	33
6mer-1-790 (KKPNPK)	12
6mer-1-757 (RKDNEK)	26
6mer-1-733 (KKKMFK)	21
6mer-1-690 (KREAER)	21
6mer-1-677 (KKCCFR)	22
6mer-1-794 (RKYEPK)	11
6mer-1-797 (RRAWNK)	22

Same assay, conditions: SPR, Resonance Units; peptides tested at 10 μM; 6mer-2 Bottom sequence

Substance	Binding affinity [Ru]
6mer-2-927 (RFNPRK)	39
6mer-2-753 (RYEHRR)	18
6mer-2-751 (RPHWKR)	12
6mer-2-869 (RHDHKR)	18
6mer-2-708 (RAWVKK)	29
6mer-2-636 (KMAPKR)	21
6mer-2-633 (KYAVKR)	17
6mer-2-718 (KYTFKR)	12
6mer-2-781 (KTMNRK)	28
6mer-2-834 (RFWWKR)	28
6mer-2-662 (KAHPKK)	11
6mer-2-950 (KYNKRR)	26
6mer-2-688 (RPMFRK)	13
6mer-2-796 (RMMARR)	32
6mer-2-844 (RDPKKK)	22
6mer-2-735 (KMNAKK)	21
6mer-2-765 (KHSPRK)	23
6mer-2-613 (KAANRR)	18
6mer-2-864 (RKCAKK)	12
6mer-2-845 (KMKEKR)	14
6mer-2-608 (RCNHKK)	32

Same assay, conditions: SPR, Resonance Units; peptides tested at 10 μM; 6mer-2 Top sequence

Substance	Binding affinity [Ru]
6mer-2-528 (KGFRKK)	151
6mer-2-574 (KGVYRK)	153
6mer-2-495 (KLLCKK)	121
6mer-2-560 (RQYTRR)	153
6mer-2-595 (KLRCKK)	154
6mer-2-590 (KGRLRK)	148
6mer-2-540 (KRLTRR)	142

Same assay, conditions: SPR, Resonance Units; peptides tested at 10 μM; 6mer-2 Top sequence (Table 12)

Substance	Binding affinity [Ru]
6mer-2-380 (RLVYRK)	141
6mer-2-376 (KQQCKR)	141
6mer-2-278 (RQIQKK)	135
6mer-2-332 (RRQYKK)	145
6mer-2-293 (KQQSKR)	153
6mer-2-304 (KWFYRK)	144
6mer-2-362 (RGRQKR)	154
6mer-2-386 (KWQSKR)	136
6mer-2-327 (KGLRKR)	153

Same assay, conditions: SPR, peptides at 10 μM; 6mer-2 Bottom sequence

Substance	Binding affinity [Ru]
6mer-2-1068 (RIHVKK)	26
6mer-2-1069 (KHDMKK)	36
6mer-2-1082 (KYTERR)	31
6mer-2-1036 (KAKNKR)	25
6mer-2-1046 (RNSEKR)	39
6mer-2-1114 (RKKFRK)	34
6mer-2-1131 (RTNAKR)	26

Same assay, conditions: SPR, peptides tested at 10 μM; 5mer Top sequence

Substance	Binding affinity [Ru]
5mer-414 (KVRCK)	71
5mer-400 (RWRCK)	70
5mer-190 (RWRSR)	84
5mer-192 (KSFRK)	75
5mer-432 (RQVRR)	52
5mer-33 (RRISK)	59
5mer-63 (RLLRK)	86
5mer-408 (KVFRK)	74
5mer-338 (RWILR)	61
5mer-172 (RSRRR)	82
5mer-467 (RRIYR)	83
5mer-40 (KSVCR)	67
5mer-91 (RQIQK)	55
5mer-96 (RVLYR)	55
5mer-302 (RRILK)	70
5mer-417 (KWLQK)	65
5mer-376 (KGQLR)	65
5mer-357 (RGFRK)	54
5mer-27 (KGYLR)	67

Same assay, conditions: SPR, peptides tested at 10 μM; 5mer Top sequence (top combinations)

Substance	Binding affinity [Ru]
5mer-521 (KRFRK)	78
5mer-255 (KQRTR)	82
5mer-566 (KQLYK)	78
5mer-597 (KLVSR)	68
5mer-541 (KVFLK)	80
5mer-213 (RQYTK)	83
5mer-218 (KVQYK)	80
5mer-524 (RRICR)	83
5mer-538 (KQQQR)	72
5mer-268 (KRYCK)	54

Same assay, conditions: SPR, peptides tested at 10 μM; 6mer-1 Bottom sequence (Table 11)

Substance	Binding affinity [Ru]
6mer-1-826 (KKAHMR)	31
6mer-1-812 (RKDHMK)	26
6mer-1-958 (KRYAGR)	43
6mer-1-846 (RKDAEK)	28
6mer-1-920 (RRPAMR)	40
6mer-1-876 (RKYWAR)	19
6mer-1-848 (RKTMFK)	19

Same assay, conditions: SPR, peptides tested at 10 μM; 6mer-1 Top sequence

Substance	Binding affinity [Ru]
6mer-1-530 (KRLVSK)	137
6mer-1-452 (KRLYTR)	141
6mer-1-406 (RKVLLR)	153
6mer-1-542 (KRWFRR)	128

Same assay, conditions: SPR, peptides tested at 10 μM; 6mer-1 Top sequence (top combinations)

Substance	Binding affinity [Ru]
6mer-1-179 (KRSQYR)	148
6mer-1-112 (KKWVCR)	148
6mer-1-176 (KKVYCK)	121
6mer-1-168 (KRWFCK)	131
6mer-1-169 (RRQQSK)	153
6mer-1-77 (KKQLRR)	149
6mer-1-37 (KKWVLR)	121
6mer-1-195 (KRGISR)	122

Same assay, conditions: SPR; XRRGVRR-7mer and RRGVRRX-7mer

Substance	Binding affinity, values relative to the RRGVRR sequence
3673 (RRGVRRY) [compound 3673]	101

Same assay, conditions: SPR; XRRQRR-6mer and RRQRRX-6mer

Substance	Binding affinity, relative value to the RRQRR sequence
3608 (MRRQRR) [compound 3608]	119
3624 (RRQRRC) [compound 3624]	126
3628 (RRQRRM) [compound 3628]	122

Same assay, conditions: SPR; peptides tested at 10 μM; 5mer Bottom sequence

Substance	Binding affinity [Ru]
5mer-829 (KCWHR)	26
5mer-1165 (RNMNR)	21
5mer-873 (RYNFR)	32
5mer-1198 (RAADK)	25
5mer-1114 (RKTFR)	28
5mer-894 (KMSPR)	18
5mer-1194 (RDNGK)	18
5mer-1140 (RNEFK)	28
5mer-812 (KTEGR)	27
5mer-1181 (KKAKR)	22
